Results: the Immune Epitope Database (IEDB)

Molecular target: HLA-A*11:01
Test: IEDB peptide-MHC binding, purified MHC/competitive/radioactivity; ≥ and ≤ were set here for values at or beyond the usual limits of such assays
Details: source organism: Hepatitis B virus

Sequence | IC50 [nM]
AVNHYFKTR | 61
CALPFTSAR | 316
GSTHVSWPK | 3.1
GTDNSVVLSR | 107
IMPARFYPK | 4.1
KVFVLGGCR | 6.5
LSLDVSAAFY | 545
RLADEGLNR | 245
TTDLEAYFK | 6.5

Same assay, conditions: source organism: Homo sapiens

IC50 [nM] | Sequence
128 | ATQIPSYKK
1150 | ESLFRAVITK

Same assay, conditions: source organism: Human immunodeficiency virus 1

Sequence | IC50 [nM]
ASQIYAGIK | 18
AVDLSHFLK | 5
AVFIHNFKRK | 7.1
GIPHPAGLK | 35
KVLFLDGIDK | 7.7
KVYLAWVPAHK | 7.6
MTKILEPFR | 378
QIYQEPFKNLK | 21
QMAVFIHNFK | 8.4
RAKWNNTLK | 188
TVQPIVLPEK | 2.4
YLAWVPAHK | 106

Same assay, conditions: source organism: Influenza A virus (A/Puerto Rico/8/1934(H1N1))

Sequence | IC50 [nM]
GTKVVPRGK | 72
GVTAACSHAGK | 30
LTEKEGSYPK | 121
NVKNLYEKVK | 51
PVTIGECPK | 2.6
RMGVQMQRFK | 94

Same assay, conditions: source organism: Plasmodium falciparum

Sequence | IC50 [nM]
LACAGLAYK | 207
